From the RNAGym collection of RNA variant scans (doi:10.1073/pnas.2313332121)

B1: TPR t1 (parent)
chain: GACCAAUCUGCCCUCAGAGCUCGAGAACAUCUUCGGAUGCAGAGGAGGCAGGCUUCGGUGGCGCGAUAGCGCCAACGUCCUCAACCUCCAAUGCAUCCCACCACAUGAUGAUGCCUGAAGAGCCUUGGUUUUUUG

Variants of: B1
Assay: polymerase ribozyme fitness, log enrichment relative to wild type (log ratio); higher = more active; in vitro selection for triplet polymerase activity
How it was run: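 Mutant libraries were PCR-built and transcribed for each subunit of a heterodimeric triplet polymerase ribozyme and selected for one round in triplicate at −7 °C, frozen, before gel excision of extended constructs and streptavidin-bead capture. Input and output libraries were Illumina-sequenced, keeping genotypes with ≥10 input reads and ≥1 read per output. Fitness is a logarithmic ratio of genotype to wild-type enrichment, in base 2, using inverse-variance-weighted replicate averages.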

| Variant | polymerase ribozyme fitness (log ratio) |
| --- | --- |
| GACCAAUCUGCCCUCAGAGCUCGAGAACAUCUUCGGAUGCAGAGGCGGCAGGCUUAGGUGGCGCGAUAGCGCCAACGUCCUCAACCUCCAAUGCAUCCCACCACAUGAUUAUGCCUGAAGAGCCUUGGUUUUUUG [A46C C56A G110U] | -2.45 |
| GACCAAUCUGCCCUCAGAGCUCGAGAACAUCUUCGGAUGCAGAGGAGGCAGGCUUCGGUGACGCGAUAGCGCCAACGUCCUCAACCUCCAAUGCAUCCCACCACAUGAUGAUGUCUGAAGAGCCUUGGUUUUUUG [G61A C114U] | -1.49 |
| GACCAAUCUACCCUCAGAGCUCGAGAACAUCUUCGGAUGCAGAGGAGGCAGUCUUCGGUGGCGCGAUAGCGGCAACGUCCUCAACCUCCAAUGCAUCCUACCACAUGAUGAUGCCUGAAGAGCCUUGGUUUUUUG [G10A G52U C72G C99U] | -4.47 |
| GACCAAUCUGCCCUCAGAGCUCGAGAACAACUUCGGAUGCAGAGGAGGCAGGCUUCGGUGGCGCGAUAGCGCCAACGUCCUCAACCUCCAAUGCAUCCCACCAAAUGAUGAUGCCUGAAGAGCCUUGGUUUUUUG [U30A C104A] | -6.42 |
| GACCAAUCUGCCCUCAGAUUUCGAGAACAUCUUCGGAUGCAGAGGAGGCAGGCUUCGGUGGCGCGAUAGCGCCAACGUCCUCAACCUCCAAUGCAUCCCACCACACGAUGAUGCCUGAAGAGCCUUGGUUUUUUG [G19U C20U U106C] | -2.36 |
| GACCAAUCUGCUCUCAGAGCUCGAGAACAUCUUCGGAUGCAGAGGAGGCAGGCUUCGGUGGCGCGAUAGCGCCAACGUCCUCAACCUCCAAUGCAUCCCACCACAUGAUGAUGCCUGAAGAGCCUUGGUUUUAUG [C12U U133A] | 0.306 |
| GACCAAUCUGCCCUCAGAGCUCGAGAACAUCUUCGGAUGCAGAGGAGGCAGGCUUCGGUGGCGCGAUAGCGGCAACGUCCUCAACCUCCAAUGCAUCCCACCACAUGAUGAUGCCUGAAGAGCCUUGGUUAUUUG [C72G U131A] | -0.469 |
| GACCAAUCUGCCCUCAGAGCUCGAGAACAUCUUCGGAUGCAGAGGAGGCAGGCUUCGGUGGCGCGAUAGCGCCAACGUCCUCAACCUCCAAUGCAGCCCACCACAUGAUGAUGCCUAAGGAGCCUUGGUUUUUUG [U96G G117A A119G] | 0.491 |
| GACCAAUCUGCGCUCAGAGCUCGAGAACAUCUUCGCAUGCAGAGGAGGCAGGCUUCGAUGGCGCGAUAGCGCCAACGUCCUCAACCUCCAAUGCAUCCCACCACAUGAUGAUGCCUGAAGAGCCUUGGUUUUUUG [C12G G36C G58A] | -1.29 |
| GACCAAUCUGCCCUCAGAGCUCGAGAACAUCUUCGGAUGCAGAGGAGGCAGGCUUCGGUGGCGCGAUAGGGCCAACGUCCUCAACCUCCAAUGCAUCCCACCACAUGAUGAUGCCUGAAGAGCCGUGGUUUUUUG [C70G U125G] | -4.85 |
| GACCAAUCUGCCAUCAGAGCUCGAGAACAUCUUCGGAUGCAGAGGAGGCAGGCUUCGGUGGCGCGAUAGCGCGAACGUCCUCAACCUCCAAUGCAUCCCACCACAUGAUGAUGCCUGAAAAGACUUGGUUUUUUG [C13A C73G G120A C123A] | -1.91 |
| GACCAAUCUGCCCUCAGAGCUCGAGAGCAUCUUCGGAUGCAGAGGAGGCCGGCUUCGGUGGCGCGAUAGCGCCAACGUCCUCAACCUCCAAUGCAUCCCACCACAUGAUGUUGCCUGAAGAGCCUUGGUUUUUUG [A27G A50C A111U] | -3.29 |
| GACCAAUCUGCCCUCAAAGCUCGAGAACAUCUUCGGAUGCAGAGGAGGCAGACUUCGGUGGCGCGAUAGCGCCAACGUCCUCAACCUCCAAUGCAUCCCACCACAUGAUGAUGCCUGGAGAGCCUUGGUUUUUUG [G17A G52A A118G] | -4.15 |
| GCCCAAUCUGCCCUCAGAGCUCGAGAACAUCUUCGGAUGCAGAGGAGGCAGGCUUCGGUGGCGCGUUAGCGCCAACGUCCUCAACCUCCAAUGCAUCCCACCACAUGAUGAUGCCUGAAGAGCCUUGGUUUUUUG [A2C A66U] | -2.86 |
| GACCAAUCUGCCCUCAGAGCUCGAGAACAUCCUCGGAUGCAGAGGAGGCAGGCUUCGGUGGCGCGAUAGCGACAACGUCCUAUACCUCCAAUGCAUCCCACCACAUGAUGAUGCCUGAAGAGCCUUGGUUUUUUG [U32C C72A C82A A83U] | -0.635 |
| GACCAAUCAGCCCUCAGAGCUCGAGAACAUCUUCGGAUGUAGAGGUGGCAGGCUUUGGUGGCGCGAUAGCGCCAACGUCCUCAACCUCCAAUGCAUCCCACCACAUGAUGAUGCGUGAAGAGCCUUGGUUGUUUG [U9A C40U A46U C56U C115G U131G] | -1.77 |
| GACCAAUCAGCCCUCAGAGCUCGAGAACAUCUUCGGAUGCAGAGGAGGCAGUCUUCGGUGGCGCGAUAGCGCCAACGUCCUCAACCUUCAAUGCAUCCCACCACAUGAUGAUGCCUGAAGAGCAUUGGUUUUUUG [U9A G52U C88U C124A] | 0.944 |
| GACCAAUCUGCCCUCAGAGCUCGAGAACAUCUUCGGAUGCAGAGGAGGCAGGCUUCGGUGUCGCGAUAGCGCCAACGUCCUCAACCUCCAAUGCAUCCCACCACAUGAUGGUGCCUGAAGAGCCUUGGUUUUUUG [G61U A111G] | 0.628 |
| GACCAAUCUGCCCUCAGAGCUCGAGAACAUCUUCGGAUGCAGAGUAGGCAGGCUUCGGUGGAGCGAUAGCGCCAACGUCCUCAACCUCGAAUGCAUCCCACCACAUGAUGAAGCCUGAAGAGCCUUGGUUUUUUG [G45U C62A C89G U112A] | -4.99 |
| GACCAAUCUGCCCUCAGAGCUCGAGAACAUCUUCGGAUGCAGAGGAGGCAGGCUUCGGUGGCGCGAUAGCGGCAACGUCCUCAACCUCCAAUGCAUCCCACCAAAUGAUGAUGCCAGAAGAGCCUUGGUUUUUUG [C72G C104A U116A] | -5.17 |
| GACCAAUCUGCCCUCAGAGCUCGAGAGCAUCUUCGGAUGCAGAGGAGGUAGGCUUCGGUGGCGCGAUAGCGCCAACGUCCUCAACCUCCACUGCAUCCCACCACAUGAUGAUGCCUGAAGAGCCUUGGUUUUUUG [A27G C49U A91C] | -4.72 |
